The text below walks through data of patent US9289468B2, “Fusion protein comprising circularly permuted form of trail/Apo2L, coding gene and use thereof” (Beijing Sunbio Biotech Co. Ltd., priority 2011, dated 2016).

Experiment [1] deals with human multiple myeloma cell line U266. The experiment in a line: Combination with melphalan, cell survival (ATPlite). In kind it is cell-based. As to the method: FIG. 9. […] U266 cells are insensitive to CPT. At the concentration of 1 μg/ml, NCPT-1.M1 alone has a mild killing effect on U266 (<20%), but with the presence of melphalan (12.5˜50 μg/ml), both of them can cause enhanced killing effect. The cell viability was assayed with ATPlite luminescent system (PerkinElmer), the data as shown in this figure are all represented as the mean±standard deviation, n=4, #P<0.05, ##P<0.01 vs. melphalan group; *P<0.05 vs. NCPT-1.M1 group.

Another experiment has as its system NCI-H460 cells. The experiment in a line: Internucleosomal DNA fragmentation (agarose gel electrophoresis). The following applies: 15 ng/ml, 2 hours. In kind it is cell-based, human. As to the method: FIG. 5. The agarose gel electrophoresis analysis of internucleosomal DNA fragmentation of NCI-H460 cells after incubated with NCPT-1.M1 for varying time.
Marker: 200 bp-2000 bp DNA markers with 200 bp interval;
Control: solvent control;
2 h, 4 h, 6 h: represent incubation with 15 ng/ml NCPT-1.M1 for 2 h, 4 h, 6 h, respectively.
NCI-H460 cells at logarithmic growth phase were incubated with NCPT-1.M1 (a final concentration of […]) for 2 h, 4 h, 6 h, and the medium control group was not added with NCPT-1.M1. All adherent and floating cells (approximately 5×10^6) were collected, and DNA was extracted (Wen Jinkun, Principles and experimental techniques of medical molecular biology, 236-237 (1999)). DNA sample was removed and mixed with 6× loading buffer, and subjected to 1.8% agarose gel (a final concentration of ethidium bromide of 0.5 μg/ml) electrophoresis. The gel was observed under ultraviolet light source and photographed, and analyzed for DNA fragmentation. […] To the contrary, in the DNA electrophoresis of the medium control group, a band corresponding to a macromolecule is very near to the loading well, and there is no DNA fragmentation ladder. With the increasing incubation time with NCPT-1.M1, the DNA ladder becomes weaker and vague, and is illegible (FIG. 5), which might be due to DNA being degraded into smaller fragments.

B1: NCPT-1.M1: MG+His6+NCPT-1 fusion protein, SEQ ID NO: 5 (protein)
chain: MGHHHHHHTLSSPNSKNEKALGRKINSWESSRSGHSFLSNLHLRNGELVIHEKGFYYIYSQTYFRFQEEIKENTKNDKQMVQYIYKYTSYPDPILLMKSARNSCWSKDAEYGLYSIYQGGIFELKENDRIFVSVTNEHLIDMDHEASFFGAFLVGGGGGGRVAAHITGTRGRSNT
modifications: NCPT-1.M1 polypeptide sequence
Regarding B1, the killing effect in experiment [1] (1 μg/ml alone, U266) is reported as under 20%. The “sensitivity of the cell line” value in experiment [1] (U266 / U266B1) is “insensitive”. Further, the DNA fragmentation ladder result with NCI-H460 cells is reported as “showed obvious ladder”.
